Laboratory results from US7838495B2, “Compositions and methods of use of EPB1, and ErbB3 binding protein” (University of Maryland, Baltimore, priority 2007, dated 2010).

Assays:
[1] = test system: androgen-responsive genes; test: Microarray gene expression profiling of LNCaP cells stably transfected with EBP1; format: cell-based, human; details: EPB1-overexpressing LNCaP cells vs controls
Description: Microarray Analysis: First and second strand cDNA were synthesized from 5-15 μg of total RNA at Genome Explorations (Nashville, Tenn.) using the SuperScript Double-Stranded cDNA Synthesis Kit (Gibco Life Technologies, Gaithersburg, Md.) and an oligo-dT24-T7 (5′-GGCCAGTGAATTGTAATACGACTCACTATAGGGAGGCGG-3′) (SEQ ID NO: 3) primer according to the manufacturer's instructions. cRNA was synthesized labeled with biotinylated UTP and CTP by in vitro transcription using the T7 promoter-coupled, double-stranded cDNA as template and the T7 RNA Transcript Labeling Kit (ENZO Diagnostics Inc., Farmingdale, N.Y.). The fragmented cRNA was hybridized for U133A oligonucleotide arrays (Affymetrix, Santa Clara, Calif.) containing ˜33,000 full-length annotated genes, together with additional probe sets designed to represent EST sequences. The arrays were then stained with phycoerythrein-conjugated streptavidin (Molecular Probes, Eugene, Oreg.), and the fluorescence intensities were determined using a laser confocal scanner (Hewlett-Packard, Palo Alto, Calif.). The scanned images were analyzed using Microarray software (Affymetrix). Sample loading and variations in staining were standardized by scaling the average of the fluorescent intensities of all genes on an array to constant target intensity for all arrays used. The signal intensity for each gene was calculated as the average intensity difference, represented by [E(PM−MM)/(number of probe pairs)], where PM and MM denote perfect-match and mismatch probes. Data analysis was conducted using Microarray Suite 5.0 (Affymetrix) following user guidelines. Only genes with a minimum expression level of 500 were included in this analysis. […] AR-regulated genes include the Androgen Receptor (AR), PSA (kallikrein 3), Kallikrein 2, POV-1, TMPRSS2, and prostate-derived factor.
Ectopic expression of EPB1 downregulates androgen-regulated genes: Gene expression profiling of LNCaP cells stably transfected with EBP1 was used to determine the range of androgen-dependent genes affected by EPB1 overexpression. These cells overexpress EPB1 protein between two- and three-fold (Zhang et al., 2002, Repression of Androgen Receptor Mediated Transcription by the ErbB-3 Binding Protein EPB1, Oncogene, 21: 5609-5618). Changes in gene expression were measured using microarray analysis of 33,000 transcripts on the Affymetrix U133A chip. To compile a list of differentially regulated genes, only those genes that were activated or repressed at least 3-fold (p<0.05, 500 minimum expression units) were included. […] Forty-one genes were induced and 126 were repressed. Seventy-two of these genes have HUGO approved names. […] These include the Androgen Receptor (3.7 fold decrease), PSA (3.7 fold decrease) as previously reported (Zhang et al., 2002, Repression of Androgen Receptor Mediated Transcription by the ErbB-3 Binding Protein EPB1, Oncogene, 21: 5609-5618), Kallikrein 2 (3.2 fold decrease), POV-1 (5.0 fold decrease), TMPRSS2 (3.2 fold decrease), and prostate-derived factor (3.2 fold decrease). The Kallikrein 2 gene is regulated by AR, predominantly expressed in prostate tissue, secreted by LNCaP cells, and 78% homologous to PSA. […] The TMPRSS2 gene is androgen-regulated and also highly expressed in prostate and prostate cancer (Afar et al., 2001, Catalytic Cleavage of the Androgen-Regulated TMPRSS2 Protease Results in its Secretion by Prostate and Prostate Cancer Epithelia, Cancer Res., 61:1686-1692).

LNCaP cells = test: Cell growth assays of LNCaP EPB1 transfectants (complete media, soft agar); format: cell-based, human
Description: Cell Growth Assays: To measure growth in complete media, cells (2×10^4) were seeded in triplicate in individual wells of 12-well tissue culture plates in RPMI-1640 with 10% FBS and cultured for the indicated number of days. Cells were trypsinized, stained with Trypan Blue (0.4%), and counted in a hemacytometer. For soft agar growth assays, increasing concentrations of cells (as indicated) were plated in 35 mm Petri dishes in complete media and 0.3% Difco Bacto Agar over an 0.5% agar layer. Colonies were counted after 10 days of incubation. For studies assessing the effect of dihydrotestosterone (DHT) on cell growth, cells (2×10^4) were plated in 12-well plates in complete media. After a 24-hour attachment period, the medium was replaced with steroid-free medium [phenol red-free RPMI 1640 and 5% charcoal-stripped FBS (Sigma)] for 48 hours. The final concentration of testosterone in the steroid-reduced media was less than 5 pM. After 48 hours of steroid depletion, cells were re-fed with fresh steroid-reduced medium with or without the indicated concentrations of DHT and/or bicalutamide (10 μM), and total cell numbers were assessed 7 days later.

B1: EBP1: ErbB3 binding protein (SEQ ID NO: 2), AR corepressor, here ectopically expressed in cancer cells by stable transfection of an expression plasmid (protein, listed as Homo sapiens)
chain: MSGEDEQQEQTIAEDLVVTKYKMGGDIANRVLRSLVEASSSGVSVLSLCEKGDAMIMEETGKIFKKEKEMKKGIAFPTSISVNNCVCHFSPLKSDQDYILKEGDLVKIDLGVHVDGFIANVAHTFVVDVAQGTQVTGRKADVIKAAHLCAEAALRLVKPGNQNTQVTEAWNKVAHSFNCTPIEGMLSHQLKQHVIDGEKTIIQNPTDQQKKDHEKAEFEVHEVYAVDVLVSSGEGKAKDAGQRTTIYKRDPSKQYGLKMKTSRAFFSEVERRFDAMPFTLRAFEDEKKARMGVVECAKHELLQPFNVLYEKEGEFVAQFKFTVLLMPNGPMRITSGPFEPDLYKSEMEVQDAELKALLQSSASRKTQKKKKKKASKTAENATSGETLEENEAGD
modifications: FLAG tag
- Androgen Receptor expression, fold decrease [1]: 3.7 fold
- Kallikrein 2 expression, fold decrease [1]: 3.2 fold
- POV-1 expression, fold decrease [1]: 5.0 fold
- PSA expression, fold decrease [1]: 3.7 fold
- TMPRSS2 expression, fold decrease [1]: 3.2 fold
- prostate-derived factor expression, fold decrease [1]: 3.2 fold
- growth rate in complete media (LNCaP cells; LNCaP EPB1 transfectants vs vector control, p<0.05): significantly decreased
- doubling time (LNCaP cells; LNCaP EPB1 transfectants, complete media (vector control 48 hours)): 72 h
- decrease of colony growth in soft agar (LNCaP cells; LNCaP, highest cell concentration tested, ten days): approximately 90%
